Among the data in the Human Domainome abundance scans (Beltran et al. 2025) are abundance fitness values, retold here.

B1: Homeobox protein cut-like 1, residues 941 to 1008; numbered along this chain, P39880 (parent)
chain: QEVDTIELTRQVKEKLAKNGICQRIFGEKVLGLSQGSVSDMLSRPKPWSKLTQKGREPFIRMQLWLNG

± gives the uncertainty stated by the source.

The variants in this data set derive from B1. Briefly: abundance fitness (aPCA) (normalised: wild type 0, dead -1); higher = more abundant; growth selection in yeast, the domain comes from the species named. Conditions: Homo sapiens.
With QEVDTIELTRQVKEKLFKNGICQRIFGEKVLGLSQGSVSDMLSRPKPWSKLTQKGREPFIRMQLWLNG [A17F], the abundance fitness is -0.116 ± 0.12.
As for QEVDTIELTRQVKEKLCKNGICQRIFGEKVLGLSQGSVSDMLSRPKPWSKLTQKGREPFIRMQLWLNG [A17C], the figure is -0.154 ± 0.089.
As for QEVDTIELTRQVKEKLQKNGICQRIFGEKVLGLSQGSVSDMLSRPKPWSKLTQKGREPFIRMQLWLNG [A17Q], the figure is -0.115 ± 0.077; as for QEVDTIELTRQVKEKLIKNGICQRIFGEKVLGLSQGSVSDMLSRPKPWSKLTQKGREPFIRMQLWLNG [A17I], -0.022 ± 0.1.
The figure for QEVDTIELTRQVKEKLWKNGICQRIFGEKVLGLSQGSVSDMLSRPKPWSKLTQKGREPFIRMQLWLNG [A17W] is -0.269 ± 0.059.
Take QEVDTIELTRQVKEKLNKNGICQRIFGEKVLGLSQGSVSDMLSRPKPWSKLTQKGREPFIRMQLWLNG [A17N]: the abundance fitness was -0.123 ± 0.17.
As for QEVDTIELTRQVKEKLEKNGICQRIFGEKVLGLSQGSVSDMLSRPKPWSKLTQKGREPFIRMQLWLNG [A17E], the figure is -0.066 ± 0.073; as for QEVDTIELTRQVKEKLDKNGICQRIFGEKVLGLSQGSVSDMLSRPKPWSKLTQKGREPFIRMQLWLNG [A17D], 0.014 ± 0.098; as for QEVDTIELTRQVKEKLKKNGICQRIFGEKVLGLSQGSVSDMLSRPKPWSKLTQKGREPFIRMQLWLNG [A17K], 0.033 ± 0.091.
As for QEVDTIELTRQVKEKLRKNGICQRIFGEKVLGLSQGSVSDMLSRPKPWSKLTQKGREPFIRMQLWLNG [A17R], the figure is -0.011 ± 0.052; as for QEVDTIELTRQVKEKLTKNGICQRIFGEKVLGLSQGSVSDMLSRPKPWSKLTQKGREPFIRMQLWLNG [A17T], -0.163 ± 0.069.
Take QEVDTIELTRQVKEKLVKNGICQRIFGEKVLGLSQGSVSDMLSRPKPWSKLTQKGREPFIRMQLWLNG [A17V]: the abundance fitness is -0.087 ± 0.047.
For QEVDTIELTRQVKEKLLKNGICQRIFGEKVLGLSQGSVSDMLSRPKPWSKLTQKGREPFIRMQLWLNG [A17L], the abundance fitness was -0.148 ± 0.05.
For the variant QEVDTIELTRQVKEKLMKNGICQRIFGEKVLGLSQGSVSDMLSRPKPWSKLTQKGREPFIRMQLWLNG [A17M], the abundance fitness was -0.171 ± 0.075.
As for QEVDTIELTRQVKEKLGKNGICQRIFGEKVLGLSQGSVSDMLSRPKPWSKLTQKGREPFIRMQLWLNG [A17G], the figure is -0.205 ± 0.049; as for QEVDTIELTRQVKEKLYKNGICQRIFGEKVLGLSQGSVSDMLSRPKPWSKLTQKGREPFIRMQLWLNG [A17Y], -0.214 ± 0.12; as for QEVDTIELTRQVKEKLHKNGICQRIFGEKVLGLSQGSVSDMLSRPKPWSKLTQKGREPFIRMQLWLNG [A17H], -0.108 ± 0.11.
On to QEVDTIELTRQVKERLAKNGICQRIFGEKVLGLSQGSVSDMLSRPKPWSKLTQKGREPFIRMQLWLNG [K15R], for which the abundance fitness was -0.096 ± 0.063.
As to QEVDTIELTRQVKEVLAKNGICQRIFGEKVLGLSQGSVSDMLSRPKPWSKLTQKGREPFIRMQLWLNG [K15V], the abundance fitness is -0.228 ± 0.074.
The figure for QEVDTIELTRQVKEHLAKNGICQRIFGEKVLGLSQGSVSDMLSRPKPWSKLTQKGREPFIRMQLWLNG [K15H] is -0.259 ± 0.11.
As for QEVDTIELTRQVKELLAKNGICQRIFGEKVLGLSQGSVSDMLSRPKPWSKLTQKGREPFIRMQLWLNG [K15L], the figure is -0.057 ± 0.063; as for QEVDTIELTRQVKEQLAKNGICQRIFGEKVLGLSQGSVSDMLSRPKPWSKLTQKGREPFIRMQLWLNG [K15Q], -0.119 ± 0.075.
The figure for QEVDTIELTRQVKEPLAKNGICQRIFGEKVLGLSQGSVSDMLSRPKPWSKLTQKGREPFIRMQLWLNG [K15P] is -0.052 ± 0.084.
Turning to QEVDTIELTRQVKESLAKNGICQRIFGEKVLGLSQGSVSDMLSRPKPWSKLTQKGREPFIRMQLWLNG [K15S], the abundance fitness was -0.221 ± 0.065.
QEVDTIELTRQVKEILAKNGICQRIFGEKVLGLSQGSVSDMLSRPKPWSKLTQKGREPFIRMQLWLNG [K15I]: the abundance fitness is -0.085 ± 0.14.
As for QEVDTIELTRQVKEYLAKNGICQRIFGEKVLGLSQGSVSDMLSRPKPWSKLTQKGREPFIRMQLWLNG [K15Y], the figure is 0.145 ± 0.096.
In the case of QEVDTIELTRQVKEMLAKNGICQRIFGEKVLGLSQGSVSDMLSRPKPWSKLTQKGREPFIRMQLWLNG [K15M], the abundance fitness was -0.148 ± 0.075.
As for QEVDTIELTRQVKETLAKNGICQRIFGEKVLGLSQGSVSDMLSRPKPWSKLTQKGREPFIRMQLWLNG [K15T], the figure is -0.196 ± 0.081; as for QEVDTIELTRQVKEWLAKNGICQRIFGEKVLGLSQGSVSDMLSRPKPWSKLTQKGREPFIRMQLWLNG [K15W], -0.238 ± 0.083; as for QEVDTIELTRQVKENLAKNGICQRIFGEKVLGLSQGSVSDMLSRPKPWSKLTQKGREPFIRMQLWLNG [K15N], -0.012 ± 0.11.
Consider QEVDTIELTRQVKEKLAKGGICQRIFGEKVLGLSQGSVSDMLSRPKPWSKLTQKGREPFIRMQLWLNG [N19G], for which the abundance fitness was -0.087 ± 0.052.
As for QEVDTIELTRQVKEKLAKWGICQRIFGEKVLGLSQGSVSDMLSRPKPWSKLTQKGREPFIRMQLWLNG [N19W], the figure is -0.234 ± 0.082; as for QEVDTIELTRQVKEKLAKFGICQRIFGEKVLGLSQGSVSDMLSRPKPWSKLTQKGREPFIRMQLWLNG [N19F], 0.07 ± 0.094.
As for QEVDTIELTRQVKEKLAKKGICQRIFGEKVLGLSQGSVSDMLSRPKPWSKLTQKGREPFIRMQLWLNG [N19K], the figure is -0.019 ± 0.08.
On to QEVDTIELTRQVKEKLAKPGICQRIFGEKVLGLSQGSVSDMLSRPKPWSKLTQKGREPFIRMQLWLNG [N19P], for which the abundance fitness amounted to 0.043 ± 0.072.
Take QEVDTIELTRQVKEKLAKDGICQRIFGEKVLGLSQGSVSDMLSRPKPWSKLTQKGREPFIRMQLWLNG [N19D]: the abundance fitness is 0.17 ± 0.086.
The figure for QEVDTIELTRQVKEKLAKAGICQRIFGEKVLGLSQGSVSDMLSRPKPWSKLTQKGREPFIRMQLWLNG [N19A] is -0.033 ± 0.053; for QEVDTIELTRQVKEKLAKVGICQRIFGEKVLGLSQGSVSDMLSRPKPWSKLTQKGREPFIRMQLWLNG [N19V] it is 0.023 ± 0.05.
In the case of QEVDTIELTRQVKEKLAKIGICQRIFGEKVLGLSQGSVSDMLSRPKPWSKLTQKGREPFIRMQLWLNG [N19I], the abundance fitness was 0.075 ± 0.12.
